The text below walks through data of patent US20080305997A1 (UNIVERSITY OF NORTH CAROLINA AT CHARLOTTE, published 2008).

For assay [1], the target named is T1, sCD4-HRP (Research Diagnostics Inc.) (UniProt P01730 26-396, limits assumed).
T1 construct: extracellular domain
The experiment in a line: microtiter assay, plate-bound peptide, sCD4-HRP.

For assay [2], the target named is T1, sCD4-HRP (Research Diagnostics Inc.). The experiment in a line: microtiter competition; free P11 added to sCD4-HRP on plate-bound P11.
Protocol: Purified sCD4 was coated overnight at 4° C. at the indicated concentrations in 0.1M sodium carbonate buffer (pH 9.5) in 96 well plates. Equimolar amounts of lysozyme were used as a non-specific control. […] The reaction was stopped by adding TMB stop solution (KPL). […] The wells were washed and blocked prior to incubation with sCD4-HRP (Research Diagnostics Inc., Flanders, N.J., U.S.A.).
For assay [3] the target is unchanged. As to the kind of experiment: microtiter assay, increasing concentrations of plate-bound P11, sCD4-HRP, non-linear curve fit.

B1: P9, overlapping synthetic peptide of Salp15 (amino acids 81-100) (peptide)
peptide: DVNVTLNLPEDTPCGPNGQT
notes: Chemically synthesized (GenScript); coated on the plate
In the case of B1, the binding result in assay [1] is listed as “no binding (tested: 0.5 µg peptide coated)”.

B2: P1, overlapping synthetic peptide of Salp15 (amino acids 1-20) (peptide)
peptide: NESGPTKADASTADKDTKKN
notes: as for B1
Take B2: in assay [1], the binding result is on record as “no binding (tested: 0.5 µg peptide coated)”.

B3: P2, overlapping synthetic peptide of Salp15 (amino acids 11-30) (peptide)
peptide: STADKDTKKNNVQLRFPNYI
notes: as for B1
Regarding B3, in assay [1], the binding result is recorded as “no binding (tested: 0.5 µg peptide coated)”.

B4: P10, overlapping synthetic peptide of Salp15 (amino acids 91-110) (peptide)
peptide: DTPCGPNGQTCAEKNKCVGH
notes: as for B1
With B4, the binding result in assay [1] was “no binding (tested: 0.5 µg peptide coated)”.

B5: P7, overlapping synthetic peptide of Salp15 (amino acids 61-80) (peptide)
peptide: VINDKYVDFKNCTFLCKHGN
notes: as for B1
In the case of B5, the binding result in assay [1] is given as “no binding (tested: 0.5 µg peptide coated)”.

B6: P6, overlapping synthetic peptide of Salp15 (amino acids 51-70) (peptide)
peptide: HNSLSSRSSDVINDKYVDFK
notes: as for B1
As for B6, the binding result in assay [1] is listed as “no binding (tested: 0.5 µg peptide coated)”.

B7: P11, C-terminal peptide of Salp15 (amino acids 95-114) (peptide)
peptide: GPNGQTCAEKNKCVGHIPGC
notes: Chemically synthesized (GenScript); also called P11k
B7 displayed an IC50 in assay [2] of 1250 nM. Also, the Kd in assay [3] came out at 50 nM.

B8: P4, overlapping synthetic peptide of Salp15 (amino acids 31-50) (peptide)
peptide: SNHQKLALKLLKICKDSKSS
notes: as for B1
Consider B8, for which, in assay [1], the binding result is recorded as “no binding (tested: 0.5 µg peptide coated)”. On the same count and under the same terms, in the case of NCTFLCKHGNDVNVTLNLPE (Chemically synthesized (GenScript)) [P8, overlapping synthetic peptide of Salp15 (amino acids 71-90)] it was “no binding (tested: 0.5 µg peptide coated)”.

B9: P3, overlapping synthetic peptide of Salp15 (amino acids 21-40) (peptide)
peptide: NVQLRFPNYISNHQKLALKL
notes: as for B1
For the molecule B9, the binding result in assay [1] is on record as “no binding (tested: 0.5 µg peptide coated)”.

B10: P5, overlapping synthetic peptide of Salp15 (amino acids 41-60) (peptide)
peptide: LKICKDSKSSHNSLSSRSSD
notes: as for B1
B10: the binding result in assay [1] was “no binding (tested: 0.5 µg peptide coated)”.
